According to PMC6883096:

Key:
[1] = molecular target: DS241 (BaxA S31R) (Bacillus amyloliquefaciens)
[2] = molecular target: recombinant Bacillus amyloliquefaciens xylanase A (reBaxA) (Bacillus amyloliquefaciens)
[3] = molecular target: DS153 (BaxA N29S) (Bacillus amyloliquefaciens)
[4] = molecular target: DS428 (BaxA I51V) (Bacillus amyloliquefaciens)
[5] = molecular target: catalytic domain of Thermomonospora fusca TF xylanase A (TfxA_CD) (Thermomonospora fusca TF)

- inhibitory rate of xylanase activity after incubation of the xylanase with rePRIXI at 50°C for 40 min (residual activity on beechwood xylan) [1]: 20.5%
- inhibitory rate of xylanase activity after incubation of the xylanase with rePRIXI at 50°C for 40 min (residual activity on beechwood xylan) [2]: 30.3%
- inhibitory rate of xylanase activity after incubation of the xylanase with rePRIXI at 50°C for 40 min (residual activity on beechwood xylan) [3]: 14.8%
- inhibitory rate of xylanase activity after incubation of the xylanase with rePRIXI at 50°C for 40 min (residual activity on beechwood xylan) [4]: 11.3%
- inhibitory rate of xylanase activity after incubation of the xylanase with rePRIXI at 50°C for 40 min (residual activity on beechwood xylan) [5]: 11.2%
B1: recombinant rice xylanase inhibitor (rePRIXI) (natural protein)
chain: AGKTGQMTVFWGRNKNEGTLKETCDTGLYTTVVISFYSVFGHGRYWGDLSGHDLRVIGADIKHCQSKNIFVFLSIGGAGKDYSLPTSKSAADVADNIWNAHMDGRRPGVFRPFGDAAVDGIDFFIDQGAPDHYDDLARNLYAYNKMYRARTPVRLTATVRCAFPDPRMKKALDTKLFERIHVRFYDDATCSYNHAGLAGVMAQWNKWTARYPGSHVYLGLAAANVPGKNDNVFIKQLYYDLLPNVQKAKNYGGIMLWDRFYDKQTGYGKTVKYWA
